From patent publication US20260021119A1, “TETRACYCLINE DERIVATIVES” (ICM (INSTITUT DU CERVEAU ET DE LA MOELLE ÉPINIÈRE), priority 2022, published 2026) come the findings set out here.

In this test the test system is p-tau (phosphorylated tau protein at Ser202, Thr205 residues). Put plainly: p-tau (AT8) expression in cultured cortical neurons under oxidative stress. Conditions: compounds 3 μM, APO 100 μg/mL; mouse cortical cultures exposed div 7-11 to DF12i. The class given is cell-based, mouse. The arrangement: key to Reduction of the % of p-tau+ somas: a favorable response, synonymous with a decrease in the number of p-tau+ cell bodies; ++: a favorable response, synonymous with a decrease in the number of p-tau+ cell bodies; +++=reference level; an unfavorable response is represented by a sign “−”, synonymous with an elevation of the number of p-tau+ cell bodies. The protocol:
A culture model of cortical neurons from mouse embryonic brain was used, in which neuronal cells were subjected to a maturation step until day in vitro (div) 7, before being gradually exposed to phenol red formulated DMEM/Nutrient mixture F12 Ham supplemented with 20 μg/mL of insulin, and 2 μM of the NMDA receptor blocker MK-801 (DF12i).
Precisely, after 4 days of exposure to DF12i, between 10-15% of surviving neurons show a very strong AT8 immunosignal in their somas while only 1 to 1.5% of neuronal cell bodies are found immunopositive under conditions where oxidative stress is repressed by treatment with bovine apotransferrin (APO; 100 µg/mL, Sigma Aldrich), a glycoprotein with iron chelating properties. Likewise, overexpression of p-tau in cortical cell bodies is reduced by the two non-antibiotic tetracyclines compound of formula (C) ([…]) and compound of formula (Ib) ([…]): see the following Table: […]

B1: apotransferrin (protein, UniProt Q29443 20-704, looked up)
Serotransferrin: DPERTVRWCTISTHEANKCASFRENVLRILESGPFVSCVKKTSHMDCIKAISNNEADAVTLDGGLVYEAGLKPNNLKPVVAEFHGTKDNPQTHYYAVAVVKKDTDFKLNELRGKKSCHTGLGRSAGWNIPMAKLYKELPDPQESIQRAAANFFSASCVPCADQSSFPKLCQLCAGKGTDKCACSNHEPYFGYSGAFKCLMEGAGDVAFVKHSTVFDNLPNPEDRKNYELLCGDNTRKSVDDYQECYLAMVPSHAVVARTVGGKEDVIWELLNHAQEHFGKDKPDNFQLFQSPHGKDLLFKDSADGFLKIPSKMDFELYLGYEYVTALQNLRESKPPDSSKDECMVKWCAIGHQERTKCDRWSGFSGGAIECETAENTEECIAKIMKGEADAMSLDGGYLYIAGKCGLVPVLAENYKTEGESCKNTPEKGYLAVAVVKTSDANINWNNLKDKKSCHTAVDRTAGWNIPMGLLYSKINNCKFDEFFSAGCAPGSPRNSSLCALCIGSEKGTGKECVPNSNERYYGYTGAFRCLVEKGDVAFVKDQTVIQNTDGNNNEAWAKNLKKENFEVLCKDGTRKPVTDAENCHLARGPNHAVVSRKDKATCVEKILNKQQDDFGKSVTDCTSNFCLFQSNSKDLLFRDDTKCLASIAKKTYDSYLGDDYVRAMTNLRQCSTSKLLEACTFHKP
modifications: iron-free apo form
For B1, the “Reduction of the % of p-tau+ somas” value was “+++”.
